Measurements taken from paper doi:10.1101/2024.11.25.625210.

Target: Tom1 (S. cerevisiae HECT ubiquitin ligase), full-length, wild type (S. cerevisiae) (UniProt Q03280)
Experiment: cryo-EM structure

UniProt Q03280, sequence (Q03280 whole entry): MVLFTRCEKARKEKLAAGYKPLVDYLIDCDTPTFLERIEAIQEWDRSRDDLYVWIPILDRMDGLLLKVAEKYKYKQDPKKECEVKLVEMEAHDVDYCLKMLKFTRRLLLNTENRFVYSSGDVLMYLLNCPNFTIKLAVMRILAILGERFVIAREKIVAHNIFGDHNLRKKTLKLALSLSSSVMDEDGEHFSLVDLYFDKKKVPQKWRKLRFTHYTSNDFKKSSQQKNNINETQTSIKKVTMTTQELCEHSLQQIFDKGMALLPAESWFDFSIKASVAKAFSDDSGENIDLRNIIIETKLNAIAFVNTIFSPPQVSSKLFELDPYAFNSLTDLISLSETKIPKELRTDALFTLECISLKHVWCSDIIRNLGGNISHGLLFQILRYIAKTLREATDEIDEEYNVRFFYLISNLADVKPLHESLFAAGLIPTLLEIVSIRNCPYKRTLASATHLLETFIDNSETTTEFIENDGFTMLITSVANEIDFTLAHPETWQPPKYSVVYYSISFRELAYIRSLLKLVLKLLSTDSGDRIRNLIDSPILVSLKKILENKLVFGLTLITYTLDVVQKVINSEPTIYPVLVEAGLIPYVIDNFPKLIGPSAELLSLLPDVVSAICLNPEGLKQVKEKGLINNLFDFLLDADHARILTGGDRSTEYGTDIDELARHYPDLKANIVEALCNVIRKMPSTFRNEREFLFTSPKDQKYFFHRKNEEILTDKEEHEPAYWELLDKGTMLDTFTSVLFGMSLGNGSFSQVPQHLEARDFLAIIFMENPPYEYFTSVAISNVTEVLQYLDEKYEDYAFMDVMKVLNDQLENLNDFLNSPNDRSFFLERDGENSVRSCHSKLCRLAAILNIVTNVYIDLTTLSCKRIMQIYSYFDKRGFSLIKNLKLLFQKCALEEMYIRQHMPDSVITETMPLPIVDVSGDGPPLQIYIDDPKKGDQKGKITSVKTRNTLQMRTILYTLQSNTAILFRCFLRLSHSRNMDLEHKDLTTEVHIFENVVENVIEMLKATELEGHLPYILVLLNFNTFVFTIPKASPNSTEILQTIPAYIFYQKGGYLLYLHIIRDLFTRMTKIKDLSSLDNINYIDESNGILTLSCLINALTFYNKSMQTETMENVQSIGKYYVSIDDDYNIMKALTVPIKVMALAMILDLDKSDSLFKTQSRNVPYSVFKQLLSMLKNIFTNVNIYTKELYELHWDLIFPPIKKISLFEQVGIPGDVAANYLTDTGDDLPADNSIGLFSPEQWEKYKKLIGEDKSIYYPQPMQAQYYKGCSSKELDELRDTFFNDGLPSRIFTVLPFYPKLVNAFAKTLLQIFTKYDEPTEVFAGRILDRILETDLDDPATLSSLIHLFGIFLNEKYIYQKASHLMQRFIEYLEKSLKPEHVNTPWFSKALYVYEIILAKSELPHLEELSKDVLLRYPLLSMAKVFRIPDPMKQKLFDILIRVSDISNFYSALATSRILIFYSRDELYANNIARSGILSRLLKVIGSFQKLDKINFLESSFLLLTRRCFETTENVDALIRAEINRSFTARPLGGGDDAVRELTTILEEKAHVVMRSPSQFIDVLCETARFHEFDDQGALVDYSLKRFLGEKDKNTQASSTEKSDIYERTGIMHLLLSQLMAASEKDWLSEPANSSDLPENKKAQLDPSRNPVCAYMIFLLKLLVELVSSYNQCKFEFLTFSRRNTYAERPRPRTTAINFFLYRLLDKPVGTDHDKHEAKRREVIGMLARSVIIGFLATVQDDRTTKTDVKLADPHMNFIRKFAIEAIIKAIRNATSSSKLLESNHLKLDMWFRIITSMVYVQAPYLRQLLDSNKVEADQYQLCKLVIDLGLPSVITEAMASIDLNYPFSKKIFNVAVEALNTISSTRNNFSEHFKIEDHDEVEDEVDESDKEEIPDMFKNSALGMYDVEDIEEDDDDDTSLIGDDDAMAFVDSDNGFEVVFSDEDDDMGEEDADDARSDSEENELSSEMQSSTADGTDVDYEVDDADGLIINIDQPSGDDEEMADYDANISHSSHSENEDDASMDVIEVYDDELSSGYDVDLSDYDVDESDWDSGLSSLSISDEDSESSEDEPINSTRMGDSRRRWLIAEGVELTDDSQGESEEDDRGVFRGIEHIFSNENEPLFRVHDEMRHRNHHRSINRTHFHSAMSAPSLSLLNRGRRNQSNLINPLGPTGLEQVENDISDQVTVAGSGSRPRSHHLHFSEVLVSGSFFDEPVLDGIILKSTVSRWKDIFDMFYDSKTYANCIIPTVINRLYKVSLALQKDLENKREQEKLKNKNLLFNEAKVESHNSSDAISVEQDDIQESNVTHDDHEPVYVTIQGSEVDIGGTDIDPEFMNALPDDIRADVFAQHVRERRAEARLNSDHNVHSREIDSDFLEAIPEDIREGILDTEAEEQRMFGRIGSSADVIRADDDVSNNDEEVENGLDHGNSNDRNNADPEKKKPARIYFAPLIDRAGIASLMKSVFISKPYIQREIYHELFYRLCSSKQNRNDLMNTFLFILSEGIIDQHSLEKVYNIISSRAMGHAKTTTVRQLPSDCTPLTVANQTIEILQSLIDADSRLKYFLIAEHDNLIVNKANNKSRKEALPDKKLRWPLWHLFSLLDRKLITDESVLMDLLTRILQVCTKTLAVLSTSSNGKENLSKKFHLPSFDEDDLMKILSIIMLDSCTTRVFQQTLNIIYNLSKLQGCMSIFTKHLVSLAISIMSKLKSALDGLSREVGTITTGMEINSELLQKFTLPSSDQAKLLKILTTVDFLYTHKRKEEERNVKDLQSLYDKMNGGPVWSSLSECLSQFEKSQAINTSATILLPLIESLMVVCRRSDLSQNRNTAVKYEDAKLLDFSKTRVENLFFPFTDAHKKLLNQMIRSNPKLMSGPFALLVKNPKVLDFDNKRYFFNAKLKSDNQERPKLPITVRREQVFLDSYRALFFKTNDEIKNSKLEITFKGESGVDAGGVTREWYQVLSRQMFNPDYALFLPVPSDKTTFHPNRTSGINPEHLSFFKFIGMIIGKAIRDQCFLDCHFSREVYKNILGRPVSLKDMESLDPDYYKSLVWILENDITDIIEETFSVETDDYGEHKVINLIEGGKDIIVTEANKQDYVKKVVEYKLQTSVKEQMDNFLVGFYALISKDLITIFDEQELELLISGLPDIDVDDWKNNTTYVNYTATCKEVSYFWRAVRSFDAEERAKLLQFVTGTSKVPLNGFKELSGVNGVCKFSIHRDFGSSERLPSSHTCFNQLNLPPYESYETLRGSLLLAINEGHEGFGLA

stoichiometry N: 4
Substance: ubiquitin (from UniProt P0CG48 1-76) (natural protein)
